What follows are binders tested against T1, APBA1_1, Q02410 (assay: holdup assay). Conditions: plain residues with an end cap or a label only (N-terminal biotin on a linker: ado-ado).
T1 sequence (Q02410 651-752, limits assumed, looked up): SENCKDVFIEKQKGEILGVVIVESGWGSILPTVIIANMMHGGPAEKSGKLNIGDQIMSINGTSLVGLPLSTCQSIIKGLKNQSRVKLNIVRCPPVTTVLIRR
Parameters: key: below the threshold = too weak to quantify, mostly under pKd 3.1 to 4

Binder | pKd
PASAKGPLGV [CLDN19, Q8N6F1] | below the threshold
PAPGQHTTQI [STK16, O75716] | below the threshold

What follows are binders tested against T2, APBA1_2, Q02410 (assay: holdup assay). Conditions: plain residues with an end cap or a label only (N-terminal biotin on a linker: ado-ado).
T2 sequence (Q02410 742-832, limits assumed, looked up): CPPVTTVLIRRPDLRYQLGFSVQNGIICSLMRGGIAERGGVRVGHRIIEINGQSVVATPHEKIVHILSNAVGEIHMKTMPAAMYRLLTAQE
Parameters: key: below the threshold = too weak to quantify, mostly under pKd 3.1 to 4

Binder | pKd
PASAKGPLGV [CLDN19, Q8N6F1] | below the threshold
PAPGQHTTQI [STK16, O75716] | below the threshold

Each binder was assayed against T3, ARHGAP21, Q5T5U3 (assay: holdup assay). Conditions: plain residues with an end cap or a label only (N-terminal biotin on a linker: ado-ado).
T3 sequence (Q5T5U3 45-169, limits assumed, looked up): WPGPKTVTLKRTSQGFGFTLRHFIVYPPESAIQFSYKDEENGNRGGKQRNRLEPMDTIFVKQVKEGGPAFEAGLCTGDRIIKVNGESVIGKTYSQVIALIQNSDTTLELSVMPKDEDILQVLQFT
Parameters: key: below the threshold = too weak to quantify, mostly under pKd 3.1 to 4

Binder | pKd
PASAKGPLGV [CLDN19, Q8N6F1] | 3.98
PAPGQHTTQI [STK16, O75716] | below the threshold

The binders below were run against T4, DLG3_3, Q92796 (assay: holdup assay). Conditions: plain residues with an end cap or a label only (N-terminal biotin on a linker: ado-ado).
T4 sequence (Q92796 374-475, limits assumed, looked up): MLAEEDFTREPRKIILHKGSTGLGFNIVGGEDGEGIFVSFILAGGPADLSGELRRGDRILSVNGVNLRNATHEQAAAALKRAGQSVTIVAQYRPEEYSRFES
Parameters: key: below the threshold = too weak to quantify, mostly under pKd 3.1 to 4

Binder | pKd
PASAKGPLGV [CLDN19, Q8N6F1] | below the threshold
PAPGQHTTQI [STK16, O75716] | below the threshold

What follows are binders tested against DLG4_1, P78352 (assay: holdup assay). Conditions: plain residues with an end cap or a label only (N-terminal biotin on a linker: ado-ado).
Chain of DLG4_1, P78352 (P78352 62-152): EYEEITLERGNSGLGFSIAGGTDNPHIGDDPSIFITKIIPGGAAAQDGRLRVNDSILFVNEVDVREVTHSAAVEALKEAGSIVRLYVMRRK
Parameters: key: below the threshold = too weak to quantify, mostly under pKd 3.1 to 4

Binder | pKd
PASAKGPLGV [CLDN19, Q8N6F1] | below the threshold
PAPGQHTTQI [STK16, O75716] | below the threshold

Each binder was assayed against GRASP, Q7Z6J2 (assay: holdup assay). Conditions: plain residues with an end cap or a label only (N-terminal biotin on a linker: ado-ado).
Chain of GRASP, Q7Z6J2 (Q7Z6J2 96-193): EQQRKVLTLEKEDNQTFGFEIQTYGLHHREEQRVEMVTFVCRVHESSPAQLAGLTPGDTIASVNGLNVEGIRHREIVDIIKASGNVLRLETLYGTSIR
Parameters: key: below the threshold = too weak to quantify, mostly under pKd 3.1 to 4

Binder | pKd
PASAKGPLGV [CLDN19, Q8N6F1] | below the threshold
PAPGQHTTQI [STK16, O75716] | 3.58

These binders were tested against GRID2IP_1, A4D2P6 (assay: holdup assay). Conditions: plain residues with an end cap or a label only (N-terminal biotin on a linker: ado-ado).
Chain of GRID2IP_1, A4D2P6 (A4D2P6 1-87): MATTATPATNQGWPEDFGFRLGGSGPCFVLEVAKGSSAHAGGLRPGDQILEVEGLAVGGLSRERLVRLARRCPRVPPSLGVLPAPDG
Parameters: key: below the threshold = too weak to quantify, mostly under pKd 3.1 to 4

Binder | pKd
PASAKGPLGV [CLDN19, Q8N6F1] | below the threshold
PAPGQHTTQI [STK16, O75716] | below the threshold

The binders below were run against T5, GRIP1_7, Q9Y3R0 (assay: holdup assay). Conditions: plain residues with an end cap or a label only (N-terminal biotin on a linker: ado-ado).
T5 sequence (Q9Y3R0 999-1096, limits assumed, looked up): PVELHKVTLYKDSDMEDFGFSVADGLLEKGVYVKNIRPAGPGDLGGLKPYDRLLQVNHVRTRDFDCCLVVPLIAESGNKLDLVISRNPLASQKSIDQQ
Parameters: key: below the threshold = too weak to quantify, mostly under pKd 3.1 to 4

Binder | pKd
PASAKGPLGV [CLDN19, Q8N6F1] | below the threshold
PAPGQHTTQI [STK16, O75716] | below the threshold

Each binder was assayed against T6, HTRA4, P83105 (assay: holdup assay). Conditions: plain residues with an end cap or a label only (N-terminal biotin on a linker: ado-ado).
T6 sequence (P83105 378-476, limits assumed, looked up): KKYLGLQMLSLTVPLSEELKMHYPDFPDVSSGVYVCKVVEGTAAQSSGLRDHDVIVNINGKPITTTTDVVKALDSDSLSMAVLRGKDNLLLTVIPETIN
Parameters: key: below the threshold = too weak to quantify, mostly under pKd 3.1 to 4

Binder | pKd
PASAKGPLGV [CLDN19, Q8N6F1] | below the threshold
PAPGQHTTQI [STK16, O75716] | 3.8

The binders below were run against Inadl_2, Q8NI35 (assay: holdup assay). Conditions: plain residues with an end cap or a label only (N-terminal biotin on a linker: ado-ado).
Chain of Inadl_2, Q8NI35 (Q8NI35 238-335): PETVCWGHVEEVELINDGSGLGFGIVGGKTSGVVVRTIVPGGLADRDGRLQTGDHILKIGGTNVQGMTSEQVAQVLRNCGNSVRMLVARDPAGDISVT
Parameters: key: below the threshold = too weak to quantify, mostly under pKd 3.1 to 4

Binder | pKd
PASAKGPLGV [CLDN19, Q8N6F1] | below the threshold
PAPGQHTTQI [STK16, O75716] | below the threshold

What follows are binders tested against Inadl_9, Q8NI35 (assay: holdup assay). Conditions: plain residues with an end cap or a label only (N-terminal biotin on a linker: ado-ado).
Chain of Inadl_9, Q8NI35 (Q8NI35 1530-1615): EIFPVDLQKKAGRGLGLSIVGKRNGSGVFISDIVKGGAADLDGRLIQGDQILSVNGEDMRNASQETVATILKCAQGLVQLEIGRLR
Parameters: key: below the threshold = too weak to quantify, mostly under pKd 3.1 to 4

Binder | pKd
PASAKGPLGV [CLDN19, Q8N6F1] | below the threshold
PAPGQHTTQI [STK16, O75716] | below the threshold

Each binder was assayed against T7, LIN7A, O14910 (assay: holdup assay). Conditions: plain residues with an end cap or a label only (N-terminal biotin on a linker: ado-ado).
T7 sequence (O14910 103-200, limits assumed, looked up): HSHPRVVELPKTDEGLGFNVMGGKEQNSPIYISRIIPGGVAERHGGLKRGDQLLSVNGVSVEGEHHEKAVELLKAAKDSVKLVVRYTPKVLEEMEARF
Parameters: key: below the threshold = too weak to quantify, mostly under pKd 3.1 to 4

Binder | pKd
PASAKGPLGV [CLDN19, Q8N6F1] | below the threshold
PAPGQHTTQI [STK16, O75716] | below the threshold

The binders below were run against T8, LNX2_2, Q8N448 (assay: holdup assay). Conditions: plain residues with an end cap or a label only (N-terminal biotin on a linker: ado-ado).
T8 sequence (Q8N448 334-432, limits assumed, looked up): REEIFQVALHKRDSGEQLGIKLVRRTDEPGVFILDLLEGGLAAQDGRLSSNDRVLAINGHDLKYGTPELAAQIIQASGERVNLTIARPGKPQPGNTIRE
Parameters: key: below the threshold = too weak to quantify, mostly under pKd 3.1 to 4

Binder | pKd
PASAKGPLGV [CLDN19, Q8N6F1] | below the threshold
PAPGQHTTQI [STK16, O75716] | below the threshold

What follows are binders tested against MAGI1_1, Q96QZ7 (assay: holdup assay). Conditions: plain residues with an end cap or a label only (N-terminal biotin on a linker: ado-ado).
Chain of MAGI1_1, Q96QZ7 (Q96QZ7 1-106): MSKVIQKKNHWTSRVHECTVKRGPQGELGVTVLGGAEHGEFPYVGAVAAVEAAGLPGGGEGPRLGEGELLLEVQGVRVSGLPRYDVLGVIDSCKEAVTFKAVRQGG
Parameters: key: below the threshold = too weak to quantify, mostly under pKd 3.1 to 4

Binder | pKd
PASAKGPLGV [CLDN19, Q8N6F1] | below the threshold
PAPGQHTTQI [STK16, O75716] | below the threshold

Each binder was assayed against T9, MPP6, Q9NZW5 (assay: holdup assay). Conditions: plain residues with an end cap or a label only (N-terminal biotin on a linker: ado-ado).
T9 sequence (Q9NZW5 125-219, limits assumed, looked up): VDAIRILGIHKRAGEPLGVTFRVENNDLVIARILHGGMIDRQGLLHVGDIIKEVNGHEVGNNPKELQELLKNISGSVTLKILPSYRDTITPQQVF
Parameters: key: below the threshold = too weak to quantify, mostly under pKd 3.1 to 4

Binder | pKd
PASAKGPLGV [CLDN19, Q8N6F1] | below the threshold
PAPGQHTTQI [STK16, O75716] | 3.57

What follows are binders tested against NHERF2_2, Q15599 (assay: holdup assay). Conditions: plain residues with an end cap or a label only (N-terminal biotin on a linker: ado-ado).
Chain of NHERF2_2, Q15599 (Q15599 142-238): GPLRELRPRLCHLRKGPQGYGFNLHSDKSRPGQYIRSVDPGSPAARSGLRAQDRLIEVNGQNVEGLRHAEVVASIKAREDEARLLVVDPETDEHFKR
Parameters: key: below the threshold = too weak to quantify, mostly under pKd 3.1 to 4

Binder | pKd
PASAKGPLGV [CLDN19, Q8N6F1] | below the threshold
PAPGQHTTQI [STK16, O75716] | 3.78

The binders below were run against NHERF4_1, Q86UT5-2 (assay: holdup assay). Conditions: plain residues with an end cap or a label only (N-terminal biotin on a linker: ado-ado).
Chain of NHERF4_1, Q86UT5-2 (Q86UT5 other isoform, or with tags, fused parts or gaps): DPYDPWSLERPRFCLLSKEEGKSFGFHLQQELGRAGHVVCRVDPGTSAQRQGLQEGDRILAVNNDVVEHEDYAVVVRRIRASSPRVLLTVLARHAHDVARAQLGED
Parameters: key: below the threshold = too weak to quantify, mostly under pKd 3.1 to 4

Binder | pKd
PASAKGPLGV [CLDN19, Q8N6F1] | 3.49
PAPGQHTTQI [STK16, O75716] | below the threshold

Each binder was assayed against NHERF4_4, Q86UT5 (assay: holdup assay). Conditions: plain residues with an end cap or a label only (N-terminal biotin on a linker: ado-ado).
Chain of NHERF4_4, Q86UT5 (Q86UT5 464-550): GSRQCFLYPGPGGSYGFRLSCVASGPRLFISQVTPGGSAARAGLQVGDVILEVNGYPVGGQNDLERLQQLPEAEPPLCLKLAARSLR
Parameters: key: below the threshold = too weak to quantify, mostly under pKd 3.1 to 4

Binder | pKd
PASAKGPLGV [CLDN19, Q8N6F1] | below the threshold
PAPGQHTTQI [STK16, O75716] | below the threshold

What follows are binders tested against NOS1, P29475 (assay: holdup assay). Conditions: plain residues with an end cap or a label only (N-terminal biotin on a linker: ado-ado).
Chain of NOS1, P29475 (P29475 9-101): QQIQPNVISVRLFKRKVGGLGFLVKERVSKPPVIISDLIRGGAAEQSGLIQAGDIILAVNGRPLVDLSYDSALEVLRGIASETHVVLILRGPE
Parameters: key: below the threshold = too weak to quantify, mostly under pKd 3.1 to 4

Binder | pKd
PASAKGPLGV [CLDN19, Q8N6F1] | below the threshold
PAPGQHTTQI [STK16, O75716] | 3.69

Each binder was assayed against PICK1, Q9NRD5 (assay: holdup assay). Conditions: plain residues with an end cap or a label only (N-terminal biotin on a linker: ado-ado).
Chain of PICK1, Q9NRD5 (Q9NRD5 17-115): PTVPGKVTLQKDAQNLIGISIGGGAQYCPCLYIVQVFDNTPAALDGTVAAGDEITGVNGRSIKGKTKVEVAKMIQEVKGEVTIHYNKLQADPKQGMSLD
Parameters: key: below the threshold = too weak to quantify, mostly under pKd 3.1 to 4

Binder | pKd
PASAKGPLGV [CLDN19, Q8N6F1] | below the threshold
PAPGQHTTQI [STK16, O75716] | 4.07

Each binder was assayed against T10, RAPGEF6, Q8TEU7 (assay: holdup assay). Conditions: plain residues with an end cap or a label only (N-terminal biotin on a linker: ado-ado).
T10 sequence (Q8TEU7 525-625, limits assumed, looked up): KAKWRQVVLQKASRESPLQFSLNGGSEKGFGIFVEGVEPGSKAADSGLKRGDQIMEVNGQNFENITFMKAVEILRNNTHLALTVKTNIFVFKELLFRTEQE
Parameters: key: below the threshold = too weak to quantify, mostly under pKd 3.1 to 4

Binder | pKd
PASAKGPLGV [CLDN19, Q8N6F1] | below the threshold
PAPGQHTTQI [STK16, O75716] | 3.49

Each binder was assayed against T11, SNTB1, Q13884 (assay: holdup assay). Conditions: plain residues with an end cap or a label only (N-terminal biotin on a linker: ado-ado).
T11 sequence (Q13884 107-205, limits assumed, looked up): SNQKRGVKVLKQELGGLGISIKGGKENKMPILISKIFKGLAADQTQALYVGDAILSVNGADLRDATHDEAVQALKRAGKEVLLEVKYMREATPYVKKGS
Parameters: key: below the threshold = too weak to quantify, mostly under pKd 3.1 to 4

Binder | pKd
PASAKGPLGV [CLDN19, Q8N6F1] | below the threshold
PAPGQHTTQI [STK16, O75716] | 3.57

The binders below were run against TJP1_3, Q07157 (assay: holdup assay). Conditions: plain residues with an end cap or a label only (N-terminal biotin on a linker: ado-ado).
Chain of TJP1_3, Q07157 (Q07157 416-512): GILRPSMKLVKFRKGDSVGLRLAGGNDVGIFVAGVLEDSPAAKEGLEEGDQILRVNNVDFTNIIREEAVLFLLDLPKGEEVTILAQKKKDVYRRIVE
Parameters: key: below the threshold = too weak to quantify, mostly under pKd 3.1 to 4

Binder | pKd
PASAKGPLGV [CLDN19, Q8N6F1] | below the threshold
PAPGQHTTQI [STK16, O75716] | below the threshold

These binders were tested against TJP2_1, Q9UDY2 (assay: holdup assay). Conditions: plain residues with an end cap or a label only (N-terminal biotin on a linker: ado-ado).
Chain of TJP2_1, Q9UDY2 (Q9UDY2 24-128): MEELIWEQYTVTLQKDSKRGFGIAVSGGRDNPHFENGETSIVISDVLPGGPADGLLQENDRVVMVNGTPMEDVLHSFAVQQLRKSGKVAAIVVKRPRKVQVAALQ
Parameters: key: below the threshold = too weak to quantify, mostly under pKd 3.1 to 4

Binder | pKd
PASAKGPLGV [CLDN19, Q8N6F1] | below the threshold
PAPGQHTTQI [STK16, O75716] | below the threshold

Each binder was assayed against T12, TJP3_3, O95049 (assay: holdup assay). Conditions: plain residues with an end cap or a label only (N-terminal biotin on a linker: ado-ado).
T12 sequence (O95049 375-456, limits assumed, looked up): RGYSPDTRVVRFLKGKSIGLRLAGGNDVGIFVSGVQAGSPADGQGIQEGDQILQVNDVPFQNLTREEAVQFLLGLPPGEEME
Parameters: key: below the threshold = too weak to quantify, mostly under pKd 3.1 to 4

Binder | pKd
PASAKGPLGV [CLDN19, Q8N6F1] | below the threshold
PAPGQHTTQI [STK16, O75716] | below the threshold

— paper PMC9482650, “Quantitative fragmentomics allow affinity mapping of interactomes” (Nature Communications, 2022)
